Measurements as given in paper PMC5620161, “Remarkably similar CTLA-4 binding properties of therapeutic ipilimumab and tremelimumab antibodies” (Oncotarget, 2017).

Molecular target: T1, ectodomain of human CTLA-4 (aa 31-161) (human, UniProt P16410-1)
T1 construct: CTLA-4, human, ectodomain, residues 31-161 of UniProt P16410-1; Homodimer held by a disulfide bond (non-reducing SDS-PAGE and crystal structure); Cloned into pET-21a; also called extracellular domain of CTLA-4
Assay: SPR; BIAcore T100, CM5 chip, CTLA-4 immobilised (5 μg/ml), scFv flowed at 6.25-200 nM, room temperature, HBS-EP (150 mM NaCl, 10 mM HEPES pH 7.4, 0.005% Tween-20), 1:1 Langmuir model
Conditions: both partners purified

T1 sequence (P16410 31-161): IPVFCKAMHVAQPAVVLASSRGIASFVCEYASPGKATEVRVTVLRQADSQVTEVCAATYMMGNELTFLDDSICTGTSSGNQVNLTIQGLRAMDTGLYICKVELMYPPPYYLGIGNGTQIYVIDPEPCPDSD

Kd: 5.89 nM | koff: 0.0018 s⁻¹ | kon: 308000 M⁻¹ s⁻¹
B1: scFv fragment of tremelimumab (scFv, V domains shown)
VH: QVQLVESGGGVVQPGRSLRLSCAASGFTFSSYGMHWVRQAPGKGLEWVAVIWYDGSNKYYADSVKGRFTISRDNSKNTLYLQMNSLRAEDTAVYYCARDPRGATLYYYYYGMDVWGQGTTVTVSS
VL: DIQMTQSPSSLSASVGDRVTITCRASQSINSYLDWYQQKPGKAPKLLIYAASSLQSGVPSRFSGSGSGTDFTLTISSLQPEDFATYYCQQYYSTPFTFGPGTKVEIK
notes: VL of tremelimumab (IGKV1-39 framework); the Fab of tremelimumab is in PDB 5GGV; linker, printed as GG(GGSGG)3GG; VH of tremelimumab (IGHV3-33 framework); Built as VL-GG(GGSGG)3GG-VH in pET21a; The parent antibody is an IgG2; only the scFv was made here; also called tremelimumab-scFv; CP-675,206
